Results published in US20130046081A1 (SHANGHAI BIOMABS PHARMACEUTICALS, published 2013).

Biological target: T1, Recombinant Human VEGF165 Protein (human, UniProt P15692-4 27-191)
T1 construct: Bought protein (R&D)
Assay: SPR (Biacore T100), VEGF165 amine-coupled to the chip, antibody in solution
Experimental: Affinity constant of VEGF antibody was detected using Biacore T100 system (Biacore AB, Uppsala, Sweden). VEGF165 (R&D) was covalently linked to CMS biological sensor chips (Biacore) by amino-coupling. […] After each examination, they were washed with 5 μl of 50 mM hydrochloric acid aqueous solution at a flow rate of 3 μl/min so as to wash away the residual antibodies from the immobilized ligands. The binding curves were subjected to nonlinear regression analysis using BIAevalution software (T100 evalution version 2.0, Biacore).

T1 sequence (P15692 other isoform, or with tags, fused parts or gaps limits assumed): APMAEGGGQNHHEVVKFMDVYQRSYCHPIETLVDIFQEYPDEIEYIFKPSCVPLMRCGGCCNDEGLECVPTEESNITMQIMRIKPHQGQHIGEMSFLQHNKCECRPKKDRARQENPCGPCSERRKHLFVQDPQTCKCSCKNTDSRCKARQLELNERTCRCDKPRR

Kd: 860 pM
koff: 7.1e-05 s⁻¹
kon: 82400 M⁻¹ s⁻¹
B1: fully human anti-VEGF antibody 11A7 (antibody, human IgG1, kappa, V domains shown)
VH: QVQLVQSGAEVKKPGASVKVSCKASGYTFTSYDINWVRQATGQGLEWMGWMNPNSGNTGYAQKFQGRVTMTRNTSISTAYMELSSLRSEDTAVYYCARGGYSSSWYYWYFDLWGRGTLVTVSS
VL: DIQMTQSPSSLSASVGDRVTITCRASQGIRNDLGWYQQKPGKAPKRLIYAASSLQSGVPSRFSGSGSGTEFTLTISSLQPEDFATYYCLQHNSYPPVYTFGQGTKLEIKR
notes: The genes carried a signal peptide at the 5' end; also called fully human antibody 11A7
